From patent US20230174655A1 (published 2023)

T1: FcγRIIa type H extracellular domain with C-terminal His tag (human, UniProt P12318 34-217)
T1 construct: extracellular domain; also called FcRIIaH; FcgRIIaH; not shown: His tag at the C terminus
T1 sequence (looked up): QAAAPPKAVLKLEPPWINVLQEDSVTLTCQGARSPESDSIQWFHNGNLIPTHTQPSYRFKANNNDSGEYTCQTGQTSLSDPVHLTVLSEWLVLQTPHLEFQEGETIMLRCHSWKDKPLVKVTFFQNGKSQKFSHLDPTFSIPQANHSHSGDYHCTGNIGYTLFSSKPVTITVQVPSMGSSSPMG

T2: FcγRIIa type R extracellular domain with C-terminal His tag (human, UniProt P12318 34-217)
T2 construct: extracellular domain; also called FcgRIIaR; FcγRIIa R; not shown: His tag at the C terminus
T2 sequence (looked up): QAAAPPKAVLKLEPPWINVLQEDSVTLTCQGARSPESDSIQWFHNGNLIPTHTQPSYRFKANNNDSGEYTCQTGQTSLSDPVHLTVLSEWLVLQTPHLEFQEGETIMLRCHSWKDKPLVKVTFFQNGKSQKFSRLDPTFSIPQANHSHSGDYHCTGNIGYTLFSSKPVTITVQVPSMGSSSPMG


Assays:
[1] = molecular target: T1, FcγRIIa type H extracellular domain …; assay: SPR (Biacore), antibody captured, FcgR analyte
Excerpt: (§1) In the table, SEQ ID NO refers to the SEQ ID NO of the H chain of the evaluated variant, and alteration refers to the alteration introduced into IL6R-B3 (SEQ ID NO: 40). […] Furthermore, KD(IIaR)/KD(IIb) and KD(IIaH)/KD(IIb) in the table respectively represent the value obtained by dividing the KD value of each variant for FcγRIIaR by the KD value of each variant for FcγRIIb, and the value obtained by dividing the KD value of each variant for FcγRIIaH by the KD value of each variant for FcγRIIb. KD(IIb) of the parent polypeptide/KD(IIb) of the altered polypeptide refers to the value obtained by dividing the KD value of the parent polypeptide for FcγRIIb by the KD value of each variant for FcγRIIb.
(§2) Kinetic analyses for calculating the KD values of each altered antibody for FcγR were performed according to the following method. First, antibodies of interest were captured onto the above-mentioned sensor chips, and an Fcγ receptor diluted with the running buffer was allowed to interact. The Biacore™ Evaluation Software was used to globally fit the measured results to the obtained sensorgram using the 1:1 Langmuir binding model, and the association rate constant ka (L/mol/s) and the dissociation rate constant kd (1/s) were calculated; and from those values the dissociation constants KD (mol/L) were calculated.

[2] = molecular target: T2, FcγRIIa type R extracellular domain …; assay: SPR (Biacore), antibody captured on chip, FcγR extracellular domain as analyte
Excerpt: as §1, §2

Kd [1]	Kd [2]	Binder
10 µM		IL6R-BF146/IL6R-L (antibody, human IgG1, kappa, alteration printed: L234Y/G237D/P238D/K326A; copies: 2 + 2) heavy: QVQLQESGPGLVKPSETLSLTCAVSGHSISHDHAWSWVRQPPGEGLEWIGFISYSGITNYNPSLQGRVTISRDNSKNTLYLQMNSLRAEDTAVYYCARSLARTTAMDYWGEGTLVTVSSASTKGPSVFPLAPSSKSTSGGTAALGCLVKDYFPEPVTVSWNSGALTSGVHTFPAVLQSSGLYSLSSVVTVPSSSLGTQTYICNVNHKPSNTKVDKKVEPKSCDKTHTCPPCPAPEYLGDDSVFLFPPKPKDTLMISRTPEVTCVVVDVSHEDPEVKFNWYVDGVEVHNAKTKPREEQYNSTYRVVSVLTVLHQDWLNGKEYKCKVSNAALPAPIEKTISKAKGQPREPQVYTLPPSRDELTKNQVSLTCLVKGFYPSDIAVEWESNGQPENNYKTTPPVLDSDGSFFLYSKLTVDKSRWQQGNVFSCSVMHEALHNHYTQESLSLSP light: not shown
	16 µM	IL6R-BP142/IL6R-L (antibody, human IgG1, kappa, IgG1; P238D/K326N (EU) introduced into IL6R-B3) heavy: QVQLQESGPGLVKPSETLSLTCAVSGHSISHDHAWSWVRQPPGEGLEWIGFISYSGITNYNPSLQGRVTISRDNSKNTLYLQMNSLRAEDTAVYYCARSLARTTAMDYWGEGTLVTVSSASTKGPSVFPLAPSSKSTSGGTAALGCLVKDYFPEPVTVSWNSGALTSGVHTFPAVLQSSGLYSLSSVVTVPSSSLGTQTYICNVNHKPSNTKVDKKVEPKSCDKTHTCPPCPAPELLGGDSVFLFPPKPKDTLMISRTPEVTCVVVDVSHEDPEVKFNWYVDGVEVHNAKTKPREEQYNSTYRVVSVLTVLHQDWLNGKEYKCKVSNNALPAPIEKTISKAKGQPREPQVYTLPPSRDELTKNQVSLTCLVKGFYPSDIAVEWESNGQPENNYKTTPPVLDSDGSFFLYSKLTVDKSRWQQGNVFSCSVMHEALHNHYTQESLSLSP light: not shown
